Assay results taken from paper PMC4666776.

Tests used:
[1] = target: biotinylated nanobody S33 (llama (Lama glama)); test: ELISA
[2] = target: biotinylated nanobody S7 (llama (Lama glama)); test: ELISA

SC50 (sEH at 50% signal saturation; detecting Nb S16) [1]: 4100 ng/mL | SC50 (sEH at 50% signal saturation; detecting Nb S49) [1]: 249 ng/mL | SC50 (sEH at 50% signal saturation; detecting HA-tagged Nb S43) [2]: 3.97 ng/mL
B1: recombinant human soluble epoxide hydrolase (enzyme)
chain: MTLRAAVFDLDGVLALPAVFGVLGRTEEALALPRGLLNDAFQKGGPEGATTRLMKGEITLSQWIPLMEENCRKCSETAKVCLPKNFSIKEIFDKAISARKINRPMLQAALMLRKKGFTTAILTNTWLDDRAERDGLAQLMCELKMHFDFLIESCQVGMVKPEPQIYKFLLDTLKASPSEVVFLDDIGANLKPARDLGMVTILVQDTDTALKELEKVTGIQLLNTPAPLPTSCNPSDMSHGYVTVKPRVRLHFVELGSGPAVCLCHGFPESWYSWRYQIPALAQAGYRVLAMDMKGYGESSAPPEIEEYCMEVLCKEMVTFLDKLGLSQAVFIGHDWGGMLVWYMALFYPERVRAVASLNTPFIPANPNMSPLESIKANPVFDYQLYFQEPGVAEAELEQNLSRTFKSLFRASDESVLSMHKVCEAGGLFVNSPEEPSLSRMVTEEEIQFYVQQFKKSGFRGPLNWYRNMERNWKWACKSLGRKILIPALMVTAEKDFVLVPQMSQHMEDWIPHLKRGHIEDCGHWTQMDKPTEVNQILIKWLDSDARNPPVVSKM
